Experimental data published in paper PMC3542269.

Target: clathrin (human (endogenous in PC-3)) (UniProt Q00610)
Experiment: co-IP; PC-3 lysate (50 mM HEPES pH 5.5, 1 mM EDTA, 150 mM NaCl, 1% Triton X-100); anti-clathrin (1 µg) or anti β-actin (5 µg) antibody overnight at 4°C, Protein A Sepharose; profilin 1 detected by Western blot; cells treated 24 h with 10 µM AMS-36 (cathepsin X inhibitor) or DMSO

Chain of UniProt Q00610 (Q00610 whole entry): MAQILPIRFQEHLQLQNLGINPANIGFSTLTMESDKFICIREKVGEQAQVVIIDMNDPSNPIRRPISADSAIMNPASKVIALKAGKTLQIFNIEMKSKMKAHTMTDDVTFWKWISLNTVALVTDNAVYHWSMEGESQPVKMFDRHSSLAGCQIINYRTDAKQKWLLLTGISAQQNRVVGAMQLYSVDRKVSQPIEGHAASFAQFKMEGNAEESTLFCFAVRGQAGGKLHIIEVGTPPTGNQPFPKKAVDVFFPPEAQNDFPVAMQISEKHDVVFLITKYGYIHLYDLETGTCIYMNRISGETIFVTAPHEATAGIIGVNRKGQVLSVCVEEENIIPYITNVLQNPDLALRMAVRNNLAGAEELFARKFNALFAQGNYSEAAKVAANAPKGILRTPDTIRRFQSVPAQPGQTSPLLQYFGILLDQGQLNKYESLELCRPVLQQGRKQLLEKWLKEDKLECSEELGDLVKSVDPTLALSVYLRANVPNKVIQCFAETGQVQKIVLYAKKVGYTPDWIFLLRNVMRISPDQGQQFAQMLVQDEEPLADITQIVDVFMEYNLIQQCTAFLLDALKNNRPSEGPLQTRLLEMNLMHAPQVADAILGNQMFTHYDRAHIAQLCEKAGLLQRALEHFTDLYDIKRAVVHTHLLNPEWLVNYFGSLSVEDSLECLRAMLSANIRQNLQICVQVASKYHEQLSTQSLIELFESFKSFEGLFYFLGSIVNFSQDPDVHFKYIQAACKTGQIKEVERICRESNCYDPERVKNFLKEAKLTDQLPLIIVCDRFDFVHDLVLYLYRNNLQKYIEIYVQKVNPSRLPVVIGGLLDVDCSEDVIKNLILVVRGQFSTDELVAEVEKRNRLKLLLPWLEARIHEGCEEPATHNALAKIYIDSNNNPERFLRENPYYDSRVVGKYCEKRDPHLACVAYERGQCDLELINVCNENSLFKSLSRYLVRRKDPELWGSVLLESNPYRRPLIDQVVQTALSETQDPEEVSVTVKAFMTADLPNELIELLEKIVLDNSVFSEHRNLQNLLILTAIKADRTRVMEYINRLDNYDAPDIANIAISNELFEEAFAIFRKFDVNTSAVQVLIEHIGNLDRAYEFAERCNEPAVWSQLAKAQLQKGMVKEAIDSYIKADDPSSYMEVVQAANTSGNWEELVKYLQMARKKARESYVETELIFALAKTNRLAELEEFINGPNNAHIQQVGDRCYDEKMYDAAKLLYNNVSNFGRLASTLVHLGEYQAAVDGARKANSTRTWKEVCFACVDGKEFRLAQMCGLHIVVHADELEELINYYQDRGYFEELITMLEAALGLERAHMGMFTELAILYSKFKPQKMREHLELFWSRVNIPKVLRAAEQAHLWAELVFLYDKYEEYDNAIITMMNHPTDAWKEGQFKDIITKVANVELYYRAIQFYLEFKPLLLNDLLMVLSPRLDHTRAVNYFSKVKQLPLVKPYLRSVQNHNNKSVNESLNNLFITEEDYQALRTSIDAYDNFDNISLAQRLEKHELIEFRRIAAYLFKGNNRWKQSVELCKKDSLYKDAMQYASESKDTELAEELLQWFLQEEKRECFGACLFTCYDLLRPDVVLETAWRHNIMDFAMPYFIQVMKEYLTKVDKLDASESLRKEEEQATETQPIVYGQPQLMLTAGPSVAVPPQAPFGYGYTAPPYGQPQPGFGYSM
Chain of profilin 1 (P07737 whole entry): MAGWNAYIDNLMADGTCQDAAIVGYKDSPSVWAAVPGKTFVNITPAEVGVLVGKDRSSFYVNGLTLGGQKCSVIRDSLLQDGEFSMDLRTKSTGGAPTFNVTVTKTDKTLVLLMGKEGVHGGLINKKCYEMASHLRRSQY

In the case of “profilin 1 (from UniProt P07737 1-140) (natural protein)”, the more profilin 1 co-precipitated with clathrin from AMS-36-treated than from DMSO-treated cells is reported as 44%.
